The text below walks through data of PMC5730197, “Evolution-guided adaptation of an adenylation domain substrate specificity to an unusual amino acid” (PLoS ONE, 2017).

The Km is the substrate concentration at which the rate is half of its maximum. As a reminder, the kcat is the number of substrate molecules converted per active site and unit of time at saturation. Broadly, the kcat/Km is the turnover number divided by the Michaelis constant.

Common to all, as to test: purified protein
Holding throughout (settings): amino acid-dependent exchange of 32P from PPi into ATP

Substrate in series [1]: O=C(O)[C@@H]1CCCN1
Substrate in series [2]: CCC[C@H]1CN[C@H](C(=O)O)C1
It is filed as biochemical, Streptomyces caelestis.

Substrate in series [3]: CCCCC[C@H]1CN[C@H](C(=O)O)C1
It is filed as biochemical, Streptomyces caelestis.

Substrate in series [4]: CCC[C@H]1CN[C@H](C(=O)O)C1
It is filed as biochemical, Streptomyces lincolnensis.

B1: CcbC (Streptomyces caelestis; V306G) (protein)
chain: MNTSTVRNSLSTLLADTAAATPGATALREPGGDTTYRDLAALAGGIQTALAEAGVRPGDRVAVLAPQTAAAVAAVHAVLSAGAAYVPLDPASPPARWAAVCGMSTPRAVVGTRDALAKLTAELPHLATVDLEAPWPEAPLAPVEREAADLGAVLPTSGSTGVPKGVAISREALLAFASWMVDTFEVGADDVIAGFSPLHFDVSVFSLFGAALTGAALAPAPPQLAGFPHELASWADDAGITVWYSVPYPLARLGTLDAVVLEQRLGRLRCVCFAGEVFPHRQLATLMSKMPWVRYTNLYGPTETNGCTFEQVLAPPDEAIAIGSPACGAECWVERDGERVDTEGAVGELIVAGPTVADGYWGNEDETARRFRFGREYRSGRAYATGDQVRILPDGRYAYLGRQDHMVKIRGQRLELEEVESVLGTADGVTGCCVVAVTPPGRPALLCAAVVGDQLDHAALRSHCRGRLPSWAIPQRFLEVPAIPLTSTGKTDRQEVRRRVMAELV
Take B1: the Km in series [1] is on record as 37 ± 2 mM.

B2: CcbC (Streptomyces caelestis; F205A/V306G/Y244L) (protein)
chain: MNTSTVRNSLSTLLADTAAATPGATALREPGGDTTYRDLAALAGGIQTALAEAGVRPGDRVAVLAPQTAAAVAAVHAVLSAGAAYVPLDPASPPARWAAVCGMSTPRAVVGTRDALAKLTAELPHLATVDLEAPWPEAPLAPVEREAADLGAVLPTSGSTGVPKGVAISREALLAFASWMVDTFEVGADDVIAGFSPLHFDVSVASLFGAALTGAALAPAPPQLAGFPHELASWADDAGITVWLSVPYPLARLGTLDAVVLEQRLGRLRCVCFAGEVFPHRQLATLMSKMPWVRYTNLYGPTETNGCTFEQVLAPPDEAIAIGSPACGAECWVERDGERVDTEGAVGELIVAGPTVADGYWGNEDETARRFRFGREYRSGRAYATGDQVRILPDGRYAYLGRQDHMVKIRGQRLELEEVESVLGTADGVTGCCVVAVTPPGRPALLCAAVVGDQLDHAALRSHCRGRLPSWAIPQRFLEVPAIPLTSTGKTDRQEVRRRVMAELV
notes: full-length stand-alone A-domain, N-terminal His6 tag kept, pET28b (pccbC), E. coli BL21(DE3)
As to B2, in series [2], the Km turned out to be 6.4 ± 1 mM, the kcat came to 0.000333 ± 1.67e-05 s⁻¹ and the kcat/Km is 0.05 M⁻¹ s⁻¹. Besides, in series [3], the Km is recorded as 2.5 ± 1 mM, the kcat came out at 0.000417 ± 5e-05 s⁻¹ and the kcat/Km came to 0.167 M⁻¹ s⁻¹.

B3: CcbC (Streptomyces caelestis) (protein)
chain: MNTSTVRNSLSTLLADTAAATPGATALREPGGDTTYRDLAALAGGIQTALAEAGVRPGDRVAVLAPQTAAAVAAVHAVLSAGAAYVPLDPASPPARWAAVCGMSTPRAVVGTRDALAKLTAELPHLATVDLEAPWPEAPLAPVEREAADLGAVLPTSGSTGVPKGVAISREALLAFASWMVDTFEVGADDVIAGFSPLHFDVSVFSLFGAALTGAALAPAPPQLAGFPHELASWADDAGITVWYSVPYPLARLGTLDAVVLEQRLGRLRCVCFAGEVFPHRQLATLMSKMPWVRYTNLYGPTETNVCTFEQVLAPPDEAIAIGSPACGAECWVERDGERVDTEGAVGELIVAGPTVADGYWGNEDETARRFRFGREYRSGRAYATGDQVRILPDGRYAYLGRQDHMVKIRGQRLELEEVESVLGTADGVTGCCVVAVTPPGRPALLCAAVVGDQLDHAALRSHCRGRLPSWAIPQRFLEVPAIPLTSTGKTDRQEVRRRVMAELV
For B3, in series [1], the Km amounted to 0.36 ± 0.03 mM, the kcat was found to be 0.917 s⁻¹ and the specificity constant (kcat/Km) came to 2550 M⁻¹ s⁻¹.

B4: CcbC (Streptomyces caelestis; V306G/Y244L) (protein)
chain: MNTSTVRNSLSTLLADTAAATPGATALREPGGDTTYRDLAALAGGIQTALAEAGVRPGDRVAVLAPQTAAAVAAVHAVLSAGAAYVPLDPASPPARWAAVCGMSTPRAVVGTRDALAKLTAELPHLATVDLEAPWPEAPLAPVEREAADLGAVLPTSGSTGVPKGVAISREALLAFASWMVDTFEVGADDVIAGFSPLHFDVSVFSLFGAALTGAALAPAPPQLAGFPHELASWADDAGITVWLSVPYPLARLGTLDAVVLEQRLGRLRCVCFAGEVFPHRQLATLMSKMPWVRYTNLYGPTETNGCTFEQVLAPPDEAIAIGSPACGAECWVERDGERVDTEGAVGELIVAGPTVADGYWGNEDETARRFRFGREYRSGRAYATGDQVRILPDGRYAYLGRQDHMVKIRGQRLELEEVESVLGTADGVTGCCVVAVTPPGRPALLCAAVVGDQLDHAALRSHCRGRLPSWAIPQRFLEVPAIPLTSTGKTDRQEVRRRVMAELV
notes: as for B2
As to B4, in series [2], the Km was determined as 24 ± 3 mM, the catalytic constant (kcat) is 0.001 ± 5e-05 s⁻¹ and the kcat/Km was found to be 0.0433 M⁻¹ s⁻¹.

B5: LmbC (Streptomyces lincolnensis; I300L) (protein)
chain: MSSSVRLSTLLASAAEARPEAPAVLGETRLPVTYGELAARAGGIQAALAGLGVRAGDRVALLSGRTDADAVAAVHAILAAGAVYVPLDAASPPARWASVSRVCAPTAVVGERALLDRFAAAVPGPRRLALPSDGDELPAGRLDPVRSDGTDVAYLLTTSGSTGVPKCVAHTGAGAVAFLEWMVGAFPVGGDDVFACHAPLHFDVSVASVLGSALGGAALAPVPRELSGFPVELATWIAERAVTVWLSVPYPLARLSGLEERAARERLATLRTVVFAGDVFPHQRLAALMRCAPGARFLNLYGPTETNGCTYEVVDAPPAGPVPIGRPVECAECWVEDDDGRPVDAVGSVGELVVAGPTVAAGYWGVEGHGAERFRTGETCPGGRAYATGDQVRVLPGGRYAFLGRMDNMIKMRGQRFELEEVENAVRLAPGVEDCCVVKVDVRDDHSRLLAVVVGPGAGDPRTLREHCLTRLPSWAVPHRFLTAAALPLGSTGKVDRRALREELVTRGE
notes: full-length stand-alone A-domain, C-terminal His8 tag kept, pET42b (plmbC1), E. coli BL21(DE3)
For the protein B5, in series [4], the Km worked out at 0.24 ± 0.009 mM, the catalytic constant (kcat) turned out to be 0.75 ± 0.00833 s⁻¹ and the kcat/Km was 3080 M⁻¹ s⁻¹.

B6: LmbC (Streptomyces lincolnensis; V274C) (protein)
chain: MSSSVRLSTLLASAAEARPEAPAVLGETRLPVTYGELAARAGGIQAALAGLGVRAGDRVALLSGRTDADAVAAVHAILAAGAVYVPLDAASPPARWASVSRVCAPTAVVGERALLDRFAAAVPGPRRLALPSDGDELPAGRLDPVRSDGTDVAYLLTTSGSTGVPKCVAHTGAGAVAFLEWMVGAFPVGGDDVFACHAPLHFDVSVASVLGSALGGAALAPVPRELSGFPVELATWIAERAVTVWLSVPYPLARLSGLEERAARERLATLRTVCFAGDVFPHQRLAALMRCAPGARFLNIYGPTETNGCTYEVVDAPPAGPVPIGRPVECAECWVEDDDGRPVDAVGSVGELVVAGPTVAAGYWGVEGHGAERFRTGETCPGGRAYATGDQVRVLPGGRYAFLGRMDNMIKMRGQRFELEEVENAVRLAPGVEDCCVVKVDVRDDHSRLLAVVVGPGAGDPRTLREHCLTRLPSWAVPHRFLTAAALPLGSTGKVDRRALREELVTRGE
notes: as for B5
As to B6, in series [4], the Km came to 0.39 ± 0.04 mM, the kcat worked out at 0.65 ± 0.0167 s⁻¹ and the kcat/Km was 1670 M⁻¹ s⁻¹.

B7: LmbC (Streptomyces lincolnensis; L246Y) (protein)
chain: MSSSVRLSTLLASAAEARPEAPAVLGETRLPVTYGELAARAGGIQAALAGLGVRAGDRVALLSGRTDADAVAAVHAILAAGAVYVPLDAASPPARWASVSRVCAPTAVVGERALLDRFAAAVPGPRRLALPSDGDELPAGRLDPVRSDGTDVAYLLTTSGSTGVPKCVAHTGAGAVAFLEWMVGAFPVGGDDVFACHAPLHFDVSVASVLGSALGGAALAPVPRELSGFPVELATWIAERAVTVWYSVPYPLARLSGLEERAARERLATLRTVVFAGDVFPHQRLAALMRCAPGARFLNIYGPTETNGCTYEVVDAPPAGPVPIGRPVECAECWVEDDDGRPVDAVGSVGELVVAGPTVAAGYWGVEGHGAERFRTGETCPGGRAYATGDQVRVLPGGRYAFLGRMDNMIKMRGQRFELEEVENAVRLAPGVEDCCVVKVDVRDDHSRLLAVVVGPGAGDPRTLREHCLTRLPSWAVPHRFLTAAALPLGSTGKVDRRALREELVTRGE
notes: as for B5
As for B7, in series [1], the Michaelis constant (Km) worked out at 54 ± 2 mM, the turnover number (kcat) turned out to be 0.217 s⁻¹ and the kcat/Km worked out at 4 M⁻¹ s⁻¹. Also, in series [4], the Michaelis-Menten constant (Km) is listed as 33 ± 6 mM, the turnover number (kcat) amounted to 0.00617 ± 0.0005 s⁻¹ and the kcat/Km was 0.183 M⁻¹ s⁻¹.

B8: LmbC (Streptomyces lincolnensis; G308V) (protein)
chain: MSSSVRLSTLLASAAEARPEAPAVLGETRLPVTYGELAARAGGIQAALAGLGVRAGDRVALLSGRTDADAVAAVHAILAAGAVYVPLDAASPPARWASVSRVCAPTAVVGERALLDRFAAAVPGPRRLALPSDGDELPAGRLDPVRSDGTDVAYLLTTSGSTGVPKCVAHTGAGAVAFLEWMVGAFPVGGDDVFACHAPLHFDVSVASVLGSALGGAALAPVPRELSGFPVELATWIAERAVTVWLSVPYPLARLSGLEERAARERLATLRTVVFAGDVFPHQRLAALMRCAPGARFLNIYGPTETNVCTYEVVDAPPAGPVPIGRPVECAECWVEDDDGRPVDAVGSVGELVVAGPTVAAGYWGVEGHGAERFRTGETCPGGRAYATGDQVRVLPGGRYAFLGRMDNMIKMRGQRFELEEVENAVRLAPGVEDCCVVKVDVRDDHSRLLAVVVGPGAGDPRTLREHCLTRLPSWAVPHRFLTAAALPLGSTGKVDRRALREELVTRGE
notes: as for B5
Regarding B8, in series [4], the Km is recorded as 5.8 ± 0.6 mM, the kcat was found to be 0.0065 ± 0.000333 s⁻¹ and the kcat/Km amounted to 1.17 M⁻¹ s⁻¹.

B9: LmbC (Streptomyces lincolnensis; A207F) (protein)
chain: MSSSVRLSTLLASAAEARPEAPAVLGETRLPVTYGELAARAGGIQAALAGLGVRAGDRVALLSGRTDADAVAAVHAILAAGAVYVPLDAASPPARWASVSRVCAPTAVVGERALLDRFAAAVPGPRRLALPSDGDELPAGRLDPVRSDGTDVAYLLTTSGSTGVPKCVAHTGAGAVAFLEWMVGAFPVGGDDVFACHAPLHFDVSVFSVLGSALGGAALAPVPRELSGFPVELATWIAERAVTVWLSVPYPLARLSGLEERAARERLATLRTVVFAGDVFPHQRLAALMRCAPGARFLNIYGPTETNGCTYEVVDAPPAGPVPIGRPVECAECWVEDDDGRPVDAVGSVGELVVAGPTVAAGYWGVEGHGAERFRTGETCPGGRAYATGDQVRVLPGGRYAFLGRMDNMIKMRGQRFELEEVENAVRLAPGVEDCCVVKVDVRDDHSRLLAVVVGPGAGDPRTLREHCLTRLPSWAVPHRFLTAAALPLGSTGKVDRRALREELVTRGE
notes: as for B5
B9: in series [4], the Km turned out to be 8.6 ± 1 mM, the turnover number (kcat) came out at 0.0733 ± 0.005 s⁻¹ and the catalytic efficiency (kcat/Km) amounted to 8.5 M⁻¹ s⁻¹.
